These results are taken from paper PMC11041675.

Among the targets are nsp7 (SARS-CoV-2, UniProt P0DTD1 3860-3942); nsp8 (SARS-CoV-2, UniProt P0DTD1 3943-4140); nsp7;nsp8 (SARS-CoV-2;SARS-CoV-2, UniProt P0DTD1;P0DTD1 3860-3942;3943-4140, |).
Assay in all cases: EMSA
For orientation: In EMSA bound probe runs differently from free probe, usually more slowly.

B1: PKP4 (structured_RNA)
RNA: GGGCUUGUGCAGAAUGAAUUCUCGUAACUACAUAGCACAAGUAGAUGUAGUUAACUUUAAUCUCACAGCAAUGUGAUUUUAAUAGCUUCUUAGGAGAAU
As to B1, the binding result in the data set with nsp7 was “no binding”; with nsp8, “binds”. This molecule yielded a Kd in the data set with nsp7;nsp8 of 2.6 µM.

B2: SL (structured_RNA)
RNA: GGAUUCUCGUAACUACAUAGCACAAGUAGAUGUAGUUACUUAGGAGAAU
Turning to B2, the binding result is “no binding” in the data set with nsp7 and “binds” in the data set with nsp8. In the data set with nsp7;nsp8, this molecule displayed a Kd of 5.7 µM.

B3: PK (structured_RNA)
RNA: GGGUCUUGUGCAGAAUGAAUUCUCGUAACUACAUAGCACAAGUAGAUGUAGUUA
As to B3, the binding result in the data set with nsp7 is recorded as “no binding”; in the data set with nsp8 it was “binds”. The molecule also showed a Kd with nsp7;nsp8 of 5.3 µM.

B4: rd85 (structured_RNA)
RNA: GGGAAUAUACUAAUAUUGGUUGAGUUGUCCAAGCUCUAAUUGUGUCCUUUAGCUGUACGGAUUAUAAAAGUAAUAGGGAUGUGUU
In turn, B4 gave a Kd with nsp7;nsp8 of 3.7 µM.

B5: SLP4 (structured_RNA)
RNA: GGGAUUCUCGUAACUACAUAGCACAAGUAGAUGUAGUUAACUUUAAUCUCACAGCAAUGUGAUUUUAAUAGCUUCUUAGGAGAAU
B5: the binding result with nsp7 was “no binding”; in the data set with nsp8 it was “binds”. This molecule also displayed a dissociation constant (Kd) with nsp7;nsp8 of 2.4 µM.

For orientation: Kd means a measure of binding affinity in units of concentration.
